Measured values from publication doi:10.1101/737098.

Target: wild-type KRAS4b GTPase domain (1-169), GMPPNP-bound (human) (UniProt P01116)
Test: ITC

Work on “NF1-GRD (GAP-related domain of neurofibromin 1) (from UniProt P21359-2 1198-1530) (domain or fragment)” yielded a Kd of 1000 nM.
